The target in assay [1] is Full-length plasma gelsolin Gly167Arg (human) (UniProt P06396). Kind of assay: SEC-MALS; 200 µl of 4 mg/ml Gly167Arg GSN separated by gel filtration without calcium, on-line MALS, dn/dc 0.185.
Assay [2] deals with Gelsolin G2 domain (amino acids 151–266) carrying the Gly167Arg mutation (human) (UniProt P06396). Kind of assay: dynamic light scattering; 1 mg/ml monomer in 20 mM HEPES pH 7.4, 0.3 M NaCl, 1 mM EDTA, incubated at 4 °C; hydrodynamic radius against time, measured at 4 °C; monomer to dimer, pseudo-first-order fit.
Assay [3] shares this target. Kind of assay: dynamic light scattering; 1 mg/ml monomer in 20 mM HEPES pH 7.4, 0.3 M NaCl, 1 mM CaCl2, incubated at 25 °C; hydrodynamic radius against time, measured at 4 °C; monomer to dimer, pseudo-first-order fit.
Assay [4] has the same target. Kind of assay: SEC; analytical gel filtration, Superdex 75 Increase 10/300 GL; 0.5 mg/ml isolated dimer or monomer incubated in 20 mM HEPES pH 7.4, 0.3 M NaCl with 1 mM CaCl2 at 4 °C, 1 mM CaCl2 at 25 °C or 1 mM EDTA at 4 °C; time course.

What is called stoichiometry N is the number of molecules, sites or subunits per partner or assembly. On to “Full-length plasma gelsolin Gly167Arg (from UniProt P06396 26-782) (natural protein)”, for which the stoichiometry N in assay [1] was determined as 2.

Take “Gelsolin G2 domain (amino acids 151–266) carrying the Gly167Arg mutation (from UniProt P06396 178-293) (domain or fragment)”: the pseudo-first-order rate constant k of the conversion of monomers to dimers in assay [2] is 2.1 h⁻¹; in assay [3] it was 0.6 h⁻¹. Also, in assay [4], the fraction of dimers at equilibrium stood at 50%.

(Values after paper PMC5886171.)
